A short description of series [1]: Solubility and stability of CPT-K3 in borate buffer precursor solution. The class given is physicochemical. The text has this: Referring now to FIG. 3, CPT-K3 remains stable in a clear precursor solution.
In the next series the test system is U87 glioblastoma cells. Description: In vitro cytotoxicity, cell viability by SRB method. The class given is cell-based, human. Particulars: CPT compared with CPT-K3. Here is the method:
FIG. 10A is a table providing the IC50 of CPT and CPT-K3. FIG. 10B is a plot of cell viability (%) vs. concentration;
FIG. 10A is a table providing the IC50 of CPT and CPT-K3. FIG. 10B is a plot of cell viability (%) vs. concentration. In this example, cell viability (%) was determined using the SRB method.

`CC[C@@]1(OC(=O)CCC(=O)N[C@@H](CCCCN)C(=O)N[C@@H](CCCCN)C(=O)N[C@@H](CCCCN)C(=O)O)C(=O)OCc2c1cc1n(c2=O)Cc2cc3ccccc3nc2-1` [CPT-K3]: in series [1] (75-mM borate buffer), the “stability in borate buffer (time stable)” value was “at least 24 hours”. The “solubility in borate buffer” value in series [1] (borate buffer) was “good solubility”. Further, the “cytotoxicity against the U87 glioblastoma cell line” value with U87 glioblastoma cells is “comparable cytotoxicity”.
For `CC[C@@]1(O)C(=O)OCc2c1cc1n(c2=O)Cc2cc3ccccc3nc2-1` [CPT, camptothecin, reference compound], in the series with U87 glioblastoma cells, the “cytotoxicity against the U87 glioblastoma cell line” value is on record as “comparable cytotoxicity”.

The record behind these values is US20250032627A1, “T[…] BASED UPON DRUG CONJUGATES” (priority 2023, published 2025).
